The target in series [1] is Human precursor IL-18 (Pro-IL-18), co-expressed in E. coli from the bicistronic pET28 cassette.
Series [2] concerns the target Human precursor IL-18 expressed as an N-terminal hexa-histidine tagged fusion.
For series [3], the target named is Ubiquitin-IL-18 fusion (76 amino acid ubiquitin fused to the N-terminus of mature human IL-18).

Results on three proteins are retold here after US20030143198.

B1: 6-his tagged N-terminally truncated caspase 4 (protein)
chain: MGHHHHHHGALKLCPHEEFLRLCKERAEEIYPIKERNNRTRLALIICNTEFDHLPPRNGADFDITGMKELLEGLDYSVDVEENLTARDMESALRAFATRPEHKSSDSTFLVLMSHGILEGICGTVHDEKKPDVLLYDTIFQIFNNRNCLSLKDKPKVIIVQACRGANRGELWVRDSPTSLEVASSQSSENLEEDAVYKTHVEKDFIAFCSSTPHNVSWRDSTMGSIFITQLITCFQKYSWCCHLEEVFRKVQQSFETPRAKAQMPTIERLSMTRYFYLFPGN
On to B1, for which the “cleavage to mature IL-18 on co-expression in E. coli” value in series [1] is “Cleavage to mature IL-18 with caspase-4 is complete by 4 hours at 37 °C or by 18 hours at 29 °C”. For the same protein, the “cleavage of prodomain, SDS-PAGE analysis” value in series [2] is recorded as “The cleavage reaction of prodomain was completed >90 % according to SDS-PAGE analysis”.

B2: 6-his tagged N-terminally truncated caspase 5 (protein)
chain: MGHHHHHHGILKLCPREEFLRLCKKNHDEIYPIKKREDRRRLALIICNTKFDHLPARNGAHYDIVGMKRLLQGLGYTVVDEKNLTARDMESVLRAFAARPEHKSSDSTFLVLMSHGILEGICGTAHKKKKPDVLLYDTIFQIFNNRNCLSLKDKPKVIIVQACRGEKHGELWVRDSPASLAVISSQSSENLEADSVCKIHEEKDFIAFCSSTPHNVSWRDRTRGSIFITELITCFQKYSCCCHLMEIFRKVQKSFEVPQAKAQMPTIERATLTRDFYLFPGN
Turning to B2, the “cleavage to mature IL-18 on co-expression in E. coli” value in series [1] is “cleavage to mature EL-18 with caspase-5 is complete by 18 hours at 29 °C”. The “cleavage of prodomain, SDS-PAGE analysis” value in series [2] is “The cleavage reaction of prodomain was completed >90 % according to SDS-PAGE analysis”.

B3: Ubiquitin protease 1 (Ubp-1), full-length (protein)
chain: MDLFIESKINSLLQFLFGSRQDFLRNFKTWSNNNNNLSIYLLIFGIVVFFYKKPDHLNYIVESVSEMTTNFRNNNSLSRWLPRSKFTHLDEEILKRGGFIAGLVNDGNTCFMNSVLQSLASSRELMEFLDNNVIRTYEEIEQNEHNEEGNGQESAQDEATHKKNTRKGGKVYGKHKKKLNRKSSSKEDEEKSQEPDITFSVALRDLLSALNAKYYRDKPYFKTNSLLKAMSKSPRKNILLGYDQEDAQEFFQNILAELESNVKSLNTEKLDTTPVAKSELPDDALVGQLNLGEVGTVYIPTEQIDPNSILHDKSIQNFTPFKLMTPLDGITAERIGCLQCGENGGIRYSVFSGLSLNLPNENIGSTLKLSQLLSDWSKPEIIEGVECNRCALTAAHSHLFGQLKEFEKKPEGSIPEKLINAVKDRVHQIEEVLAKPVIDDEDYKKLHTANMVRKCSKSKQILISRPPPLLSIHINRSVFDPRTYMIRKNNSKVLFKSRLNLAPWCCDINEINLDARLPMSKKEKAAQQDSSEDENIGGEYYTKLHERFEQEFEDSEEEKEYDDAEGNYASHYNHTKDISNYDPLNGEVDGVTSDDEDEYIEETDALGNTIKKRIIEHSDVENENVKDNEELQEIDNVSLDEPKINVEDQLETSSDEEDVIPAPPINYARSFSTVPATPLTYSLRSVIVHYGTHNYGHYIAFRKYRGCWWRISDETVYVVDEAEVLSTPGVFMLFYEYDFDEETGKMKDDLEAIQSNNEEDDEKEQEQKGVQEPKESQEQGEGEEQEEGQEQMKFERTEDHRDISGKDVN
As to B3, the “processing of Ub-IL-18 to mature IL-18 on co-expression in E. coli (Western blot)” value in series [3] was “efficient processing of Ub-IL-18 to mature active IL-18”.
